This note sets out measurements from article PMC12752793, “Development of potent Affitin-based bispecific NK cell engagers for the therapy of MSLN-expressing cancers” (Molecular Therapy Oncology, 2025).

Bounds are passed on as bounds.

One may read the koff as the rate constant with which the complex falls apart. By EC50 is commonly meant the concentration needed to bring the measured effect to its halfway point. Lower therefore signals higher potency in that assay.

Experiment [1] deals with T1, recombinant 302–359 fragment of human mesothelin (hMSLN) (human, UniProt Q13421 302-359, biotin on the AviTag).
T1 chain: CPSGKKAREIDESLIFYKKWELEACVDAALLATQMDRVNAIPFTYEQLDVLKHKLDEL
As to the kind of experiment: SPR; bivalent model, kd2. A general note: Surface plasmon resonance follows binding to a sensor surface in real time, without labels.

Experiment [2] concerns the target T1, recombinant 302–359 fragment of human …. The experiment can be described thus: SPR; bivalent model, kd1.
Experiment [3] deals with recombinant 302–359 fragment of human mesothelin (hMSLN) (human) (UniProt Q13421). As to the kind of experiment: SPR; Biacore T200; hMSLN 302–359 amine-coupled at about 700 RU on CM5; analytes 12.5 to 200 nM in HBS-EP, single cycle kinetics, 30 μL/min; bivalent model; apparent.
For experiment [4], the target named is human mesothelin on the surface of Meso34-MSLN cells (human) (UniProt Q13421).
Sequence of human mesothelin on the surface of Meso34-MSLN cells (human) (Q13421 other isoform, or with tags, fused parts or gaps): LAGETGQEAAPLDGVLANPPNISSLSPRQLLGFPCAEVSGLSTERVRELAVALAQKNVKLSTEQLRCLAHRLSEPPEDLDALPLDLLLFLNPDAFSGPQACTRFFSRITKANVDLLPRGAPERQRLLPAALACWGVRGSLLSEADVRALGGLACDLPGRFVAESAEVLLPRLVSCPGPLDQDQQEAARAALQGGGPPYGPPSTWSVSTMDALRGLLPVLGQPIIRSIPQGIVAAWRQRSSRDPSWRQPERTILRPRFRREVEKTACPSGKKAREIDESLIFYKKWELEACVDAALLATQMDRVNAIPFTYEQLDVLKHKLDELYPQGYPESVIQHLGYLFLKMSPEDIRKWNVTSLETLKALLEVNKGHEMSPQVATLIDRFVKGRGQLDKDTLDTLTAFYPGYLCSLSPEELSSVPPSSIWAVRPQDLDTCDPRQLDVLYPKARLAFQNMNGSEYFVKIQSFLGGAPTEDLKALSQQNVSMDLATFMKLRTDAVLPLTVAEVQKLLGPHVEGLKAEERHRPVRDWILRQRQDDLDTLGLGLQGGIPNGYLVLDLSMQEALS
Experiment [5] has the same target. As to the kind of experiment: flow cytometry on cells; Meso34-MSLN and NK92CD16h cells incubated with increasing concentrations of BiKEs, 30 min at 4°C; streptavidin-PE; one binding site regression.
Experiment [6] has as its target recombinant 302–359 fragment of human mesothelin (hMSLN) (human) (UniProt Q13421). The experiment can be described thus: SPR; Biacore T200; hMSLN 302–359 amine-coupled at about 700 RU on CM5; analytes 12.5 to 200 nM in HBS-EP, single cycle kinetics, 30 μL/min; Langmuir model.
Experiment [7] addresses T1, recombinant 302–359 fragment of human …. The experiment can be described thus: SPR.
Experiment [8] has the same target. As to the kind of experiment: SPR.
Experiment [9] has the same target. As to the kind of experiment: SPR.
Experiment [10] deals with T2, recombinant 302–359 fragment of human mesothelin (hMSLN) (Homo sapiens, UniProt Q13421, biotin on the AviTag).
T2 construct: Amine-coupled to a CM5 chip in SPR, captured on NeutrAvidin in ELISA; source: E. coli Origami B with pBirA, purified (Ni-NTA, Superdex 75); not shown: AviTag, C-terminal, kept
As to the kind of experiment: SPR; Biacore T200; hMSLN 302–359 amine-coupled at about 700 RU on CM5; analytes 12.5 to 200 nM in HBS-EP, single cycle kinetics, 30 μL/min; Langmuir model. Conditions: both partners purified.

In experiment [11] the target is T1, recombinant 302–359 fragment of human …. As to the kind of experiment: SPR; bivalent model, kd2.
Experiment [12] has the same target. As to the kind of experiment: SPR; bivalent model, kd1.
In experiment [13] the target is human mesothelin on the surface of Meso34-MSLN cells (human) (UniProt Q13421). As to the kind of experiment: flow cytometry on cells; Meso34 and Meso34-MSLN cells stained with a concentration range of N13 monomer (streptavidin-PE), N13 dimer (anti-6X His Tag-PE) or MORAb-009 (anti-human IgG Fc), 30 min at 4°C; EC50 by one binding site regression. In general terms: A flow cytometer gives signals particle by particle.

B1: C21(N13)2 bispecific NK cell engager (anti-CD16 VHH C21 fused to a homodimer of N13 Affitin) (designed binder)
chain: MEVQLVESGGELVQAGGSLRLSCAASGLTFSSYNMGWFRRAPGKEREFVASITWSGRDTFYADSVKGRFTISRDNAKNTVYLQMSSLKPEDTAVYYCAANPWPVAAPRSGTYWGQGTQVTVSSPSGQAGAAASESLFVSNHAYGSATKVKFKVFGEEKEVDISKIKHVDRMNWRGLLYIRFSYDDNGKLGHGWVSEKDAPKELLEKLKPSGQAGAAASESLFVSNHAYGSGATKVKFKVFGEEKEVDISKIKHVDRMNWRGLLYIRFSYDDNGKLGHGWVSEKDAPKELLEKLKLNRGSHHHHHHGSGLNDIFEAQKIEWHE
modifications: biotin on the AviTag
Turning to B1, in experiment [1], the koff turned out to be 0.000762 s⁻¹. In addition, the koff in experiment [2] turned out to be 0.136 s⁻¹. The Kd in experiment [3] is 0.831 nM. For the same molecule, in [4], the ED50 of NK92CD16h-mediated 51Cr cytotoxicity on Meso34-MSLN cells, effector/target ratio 10:1 worked out at 0.325 nM; the ED50 of NK92CD16h-mediated 51Cr cytotoxicity on Meso34-MSLN cells, effector/target ratio 20:1 stood at 0.277 nM; the maximal NK92CD16h-mediated 51Cr cytotoxicity on Meso34-MSLN cells, effector/target ratio 10:1 is 22.6%; the maximal NK92CD16h-mediated 51Cr cytotoxicity on Meso34-MSLN cells, effector/target ratio 20:1 was 38.9%. This molecule gave an EC50 in [5] of 7.45 nM.

B2: C21(N13)1 bispecific NK cell engager (anti-CD16 VHH C21 fused to one N13 Affitin) (designed binder)
chain: MEVQLVESGGELVQAGGSLRLSCAASGLTFSSYNMGWFRRAPGKEREFVASITWSGRDTFYADSVKGRFTISRDNAKNTVYLQMSSLKPEDTAVYYCAANPWPVAAPRSGTYWGQGTQVTVSSPSGQAGAAASESLFVSNHAYGSATKVKFKVFGEEKEVDISKIKHVDRMNWRGLLYIRFSYDDNGKLGHGWVSEKDAPKELLEKLKKLNRGSHHHHHHGSGLNDIFEAQKIEWHE
modifications: biotin on the AviTag
In the case of B2, in [6], the Kd was 67.1 nM. Also, the koff in experiment [7] came to 0.0385 s⁻¹. Further, in [4], the ED50 of NK92CD16h-mediated 51Cr cytotoxicity on Meso34-MSLN cells, effector/target ratio 10:1 stood at 5.62 nM; the ED50 of NK92CD16h-mediated 51Cr cytotoxicity on Meso34-MSLN cells, effector/target ratio 20:1 was determined as 3.11 nM; the maximal NK92CD16h-mediated 51Cr cytotoxicity on Meso34-MSLN cells, effector/target ratio 10:1 was found to be 19.2%; the maximal NK92CD16h-mediated 51Cr cytotoxicity on Meso34-MSLN cells, effector/target ratio 20:1 is 26.1%. For the same molecule, the affinity for Meso34-hMSLN cells in experiment [5] was above 100 nM.

B3: N7 Affitin (monomer) (designed binder)
chain: MRGSHHHHHHGSATKVKFKYMGEEKEVDISKIKVVSRSVGPLGSFILFQYDDNGKMGRGFVSEKDAPKELLEKLKLN
modifications: biotin on the AviTag
As for B3, in [8], the koff was 0.214 s⁻¹.

B4: VHH A1 (anti-hMSLN VHH) (VHH)
VHH: DVQLQESGGGLVHPGGSLRLSCAASGIDLSLYRMRWYRQAPGKERDLVALITDDGTSYYEDSVKGRFTITRDNPSNKVFLQMNSLKPEDTAVYYCNAETPLSPVNYWGQGTQVTVSS
Turning to B4, the koff in experiment [9] is 0.804 s⁻¹. Moreover, in experiment [10], the Kd amounted to 15.6 nM.

B5: N23 Affitin (monomer) (designed binder)
chain: MRGSHHHHHHGSATKVKFKLFGEEKEVDISKIKRVERRAIQAASYIAFAYDDNGKIGHGWVSEKDAPKELLEKLKLN
modifications: biotin on the AviTag
For B5, in experiment [8], the koff was found to be 0.288 s⁻¹.

B6: N13 Affitin (monomer) (designed binder)
chain: MRGSHHHHHHGSATKVKFKVFGEEKEVDISKIKHVDRMNWRGLLYIRFSYDDNGKLGHGWVSEKDAPKELLEKLKLN
modifications: biotin on the AviTag
With B6, the koff in [8] came to 0.0647 s⁻¹.

B7: N18 Affitin (monomer) (designed binder)
chain: MRGSHHHHHHGSATKVKFKLFGEEKEVDISKIKKVERRTFHMDKTIVFMYDDNGKSGYGWVSEKDAPKELLEKLKLN
modifications: biotin on the AviTag
In the case of B7, the koff in [8] came to 0.073 s⁻¹.

B8: N13 Affitin homodimer (two N13 Affitins linked by a 20-amino-acid HMA linker) (designed binder)
chain: MRGSHHHHHHGSATKVKFKVFGEEKEVDISKIKHVDRMNWRGLLYIRFSYDDNGKLGHGWVSEKDAPKELLEKLKPSGQAGAAASESLFVSNHAYGSGATKVKFKVFGEEKEVDISKIKHVDRMNWRGLLYIRFSYDDNGKLGHGWVSEKDAPKELLEKLKLGSGLNDIFEAQKIEWHE
For the molecule B8, in experiment [11], the koff came to 0.000767 s⁻¹. Besides, in experiment [3], the Kd was 0.57 nM and the fold reduction of the dissociation rate constant (kd) against the N13 monomer was 84 fold. In addition, the koff in experiment [12] stood at 0.0573 s⁻¹. In experiment [13], this molecule came in with an EC50 of 2.22 nM and a fold increase in affinity for cellular hMSLN against the N13 monomer of 1000 fold.
